According to US20130071375A1:
Where “and” joins values, the source holds several entries; their conditions need not be identical. Equal entries are not always repeated.

Legend:
[1] = molecular target: Endothelial protein C receptor (human) (UniProt Q9UNN8); assay: cell-based or functional assay
[2] = molecular target: Protease-activated receptor 1 (human) (UniProt P25116); assay: cell-based or functional assay
Sequence of Protease-activated receptor 1 (human) (P25116 42-425): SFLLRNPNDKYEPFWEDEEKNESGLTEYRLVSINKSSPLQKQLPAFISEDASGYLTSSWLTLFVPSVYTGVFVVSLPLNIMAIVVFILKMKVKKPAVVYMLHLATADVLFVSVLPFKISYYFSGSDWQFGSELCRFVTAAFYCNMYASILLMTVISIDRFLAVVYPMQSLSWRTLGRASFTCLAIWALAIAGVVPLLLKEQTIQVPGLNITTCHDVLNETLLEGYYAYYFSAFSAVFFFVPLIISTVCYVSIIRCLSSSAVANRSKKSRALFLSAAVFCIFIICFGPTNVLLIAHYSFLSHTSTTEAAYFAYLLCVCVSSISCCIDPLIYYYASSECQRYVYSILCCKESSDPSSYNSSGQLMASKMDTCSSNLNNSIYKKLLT

Sequence of Endothelial protein C receptor (human) (Q9UNN8 18-238): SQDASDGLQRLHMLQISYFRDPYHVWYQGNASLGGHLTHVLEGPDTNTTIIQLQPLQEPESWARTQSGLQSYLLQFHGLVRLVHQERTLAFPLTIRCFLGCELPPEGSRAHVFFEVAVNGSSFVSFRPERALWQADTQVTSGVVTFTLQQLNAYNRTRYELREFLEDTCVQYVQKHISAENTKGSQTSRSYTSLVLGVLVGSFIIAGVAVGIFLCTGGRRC

| inhibition of LPS (100 ng/mL)-mediated HMGB1 release by HUVECs (ELISA) [1] | efficacy relative to APC in inhibiting adherence and migration of THP-1 cells across HMGB1-activated HUVEC monolayer [2] | Substance |
| --- | --- | --- |
| > 10 nM and 100 nM |  | Activated protein C (from UniProt P04070 43-461) |
| < 1 nM | 20 to 50 fold | PCgla/meizothrombin (meizothrombin with its Gla-domain replaced by that of protein C; Factor Xa-activated PCgla/prothrombin-3A) |
